Test results: patent publication US20210292414A1 (H LUNDBECK A S, published 2021)

Assays:
Experiment in all cases: BLI (Octet384RED)
[1] = molecular target: T1, Sortilin SORTECDBAP_hB01-05 (human/tetraodon chimera)
T1 construct: Shuffle construct: chimeric human/tetraodon Sortilin ECD with BAP tag
T1 chain: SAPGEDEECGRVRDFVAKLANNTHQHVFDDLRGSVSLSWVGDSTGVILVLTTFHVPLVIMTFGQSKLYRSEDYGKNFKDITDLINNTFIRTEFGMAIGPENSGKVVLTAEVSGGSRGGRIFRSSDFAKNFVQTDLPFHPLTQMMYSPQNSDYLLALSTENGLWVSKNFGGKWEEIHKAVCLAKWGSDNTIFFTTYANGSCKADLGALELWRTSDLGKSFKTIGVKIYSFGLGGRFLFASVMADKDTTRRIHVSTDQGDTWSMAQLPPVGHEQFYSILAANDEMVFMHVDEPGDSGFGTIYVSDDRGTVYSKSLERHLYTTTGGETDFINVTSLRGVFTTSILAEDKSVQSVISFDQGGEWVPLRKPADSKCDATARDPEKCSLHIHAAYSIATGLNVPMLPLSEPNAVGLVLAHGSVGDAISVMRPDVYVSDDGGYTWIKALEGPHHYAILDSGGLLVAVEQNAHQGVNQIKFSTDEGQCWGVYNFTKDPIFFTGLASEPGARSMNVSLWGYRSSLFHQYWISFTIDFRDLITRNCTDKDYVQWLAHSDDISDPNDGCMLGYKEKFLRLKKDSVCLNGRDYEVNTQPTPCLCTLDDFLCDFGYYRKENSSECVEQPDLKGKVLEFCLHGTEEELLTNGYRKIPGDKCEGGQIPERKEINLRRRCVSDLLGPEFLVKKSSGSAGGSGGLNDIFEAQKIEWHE

Sortilin hSORTECDBAP = molecular target: T2, Sortilin hSORTECDBAP (human, UniProt Q99523 78-755)
T2 sequence: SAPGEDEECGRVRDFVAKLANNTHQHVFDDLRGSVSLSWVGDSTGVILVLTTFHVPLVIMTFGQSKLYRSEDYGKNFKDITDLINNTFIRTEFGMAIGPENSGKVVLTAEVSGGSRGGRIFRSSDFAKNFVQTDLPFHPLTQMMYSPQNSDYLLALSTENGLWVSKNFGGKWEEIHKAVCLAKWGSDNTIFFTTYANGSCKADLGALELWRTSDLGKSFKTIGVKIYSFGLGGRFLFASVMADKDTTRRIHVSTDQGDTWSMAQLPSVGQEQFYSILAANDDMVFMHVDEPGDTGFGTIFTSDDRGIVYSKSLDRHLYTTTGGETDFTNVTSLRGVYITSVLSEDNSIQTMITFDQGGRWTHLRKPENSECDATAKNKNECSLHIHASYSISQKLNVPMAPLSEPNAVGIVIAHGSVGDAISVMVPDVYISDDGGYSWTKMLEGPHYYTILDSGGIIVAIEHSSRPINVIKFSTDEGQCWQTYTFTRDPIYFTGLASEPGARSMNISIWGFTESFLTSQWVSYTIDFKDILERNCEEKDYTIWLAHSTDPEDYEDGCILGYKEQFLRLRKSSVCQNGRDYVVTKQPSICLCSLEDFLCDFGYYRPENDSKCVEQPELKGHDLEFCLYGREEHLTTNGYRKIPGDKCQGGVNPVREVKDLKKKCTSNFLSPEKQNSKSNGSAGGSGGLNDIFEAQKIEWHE

[2] = molecular target: T3, Sortilin SORTECDBAP_hB06-10 (human/tetraodon chimera)
T3 construct: Shuffle construct: chimeric human/tetraodon Sortilin ECD with BAP tag
T3 chain: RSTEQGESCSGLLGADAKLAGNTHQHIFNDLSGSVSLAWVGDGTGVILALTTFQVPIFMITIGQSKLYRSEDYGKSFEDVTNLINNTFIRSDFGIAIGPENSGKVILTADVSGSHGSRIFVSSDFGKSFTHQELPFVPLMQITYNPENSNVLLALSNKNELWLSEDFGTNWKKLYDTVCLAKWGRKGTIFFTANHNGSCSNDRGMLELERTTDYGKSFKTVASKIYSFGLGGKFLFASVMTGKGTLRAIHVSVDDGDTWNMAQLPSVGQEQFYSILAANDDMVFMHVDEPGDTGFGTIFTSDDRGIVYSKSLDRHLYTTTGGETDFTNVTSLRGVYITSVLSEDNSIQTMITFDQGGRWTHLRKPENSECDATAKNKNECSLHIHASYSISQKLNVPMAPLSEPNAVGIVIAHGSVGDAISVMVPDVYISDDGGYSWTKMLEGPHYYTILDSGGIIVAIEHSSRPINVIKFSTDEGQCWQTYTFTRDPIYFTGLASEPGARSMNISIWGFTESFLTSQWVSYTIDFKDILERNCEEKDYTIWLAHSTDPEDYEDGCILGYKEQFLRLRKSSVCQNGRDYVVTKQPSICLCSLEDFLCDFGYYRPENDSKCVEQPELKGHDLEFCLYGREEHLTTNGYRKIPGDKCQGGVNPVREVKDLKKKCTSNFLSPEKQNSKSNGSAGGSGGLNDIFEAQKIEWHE

[3] = molecular target: T4, Sortilin SORTECDBAP_hB45678 (human/tetraodon chimera)
T4 construct: Shuffle construct: chimeric human/tetraodon Sortilin ECD with BAP tag
T4 chain: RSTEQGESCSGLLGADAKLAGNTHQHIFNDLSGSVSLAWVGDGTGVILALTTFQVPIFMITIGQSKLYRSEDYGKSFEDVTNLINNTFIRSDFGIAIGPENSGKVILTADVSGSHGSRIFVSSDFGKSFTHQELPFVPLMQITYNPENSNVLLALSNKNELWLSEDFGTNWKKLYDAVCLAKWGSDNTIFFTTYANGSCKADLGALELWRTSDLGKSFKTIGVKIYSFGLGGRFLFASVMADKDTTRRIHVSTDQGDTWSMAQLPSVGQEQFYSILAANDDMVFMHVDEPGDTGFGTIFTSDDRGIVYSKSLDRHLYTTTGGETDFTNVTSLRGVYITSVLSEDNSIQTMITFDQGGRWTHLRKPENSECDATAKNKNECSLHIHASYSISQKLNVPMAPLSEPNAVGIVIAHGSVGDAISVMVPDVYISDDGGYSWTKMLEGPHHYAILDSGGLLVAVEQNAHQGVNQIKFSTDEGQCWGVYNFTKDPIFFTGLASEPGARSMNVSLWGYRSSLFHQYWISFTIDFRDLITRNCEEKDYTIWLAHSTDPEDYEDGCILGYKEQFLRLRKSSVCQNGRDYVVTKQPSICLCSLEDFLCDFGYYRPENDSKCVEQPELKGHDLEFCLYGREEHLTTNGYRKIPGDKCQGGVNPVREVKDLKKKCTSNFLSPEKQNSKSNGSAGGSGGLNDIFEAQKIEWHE

B1: Antibody 6003-799 (antibody, human IgG1, V domains shown)
VH: QVQLVESGGGVVQPGRSLRLSCAASGFTFSSYGMHWVRQAPGKGLEWVTVISYDGSNKYYADSVKGRFTISRDNSKNTLYLQMNSLRAEDTAVYYCAKLTGDAFDIWGQGTMVTVSS
VL: EIVLTQSPATLSLSPGERATLSCRASQSVSSYLVWYQQKPGQAPRLLIYHASNRATGIPARFSGSGSGTDFTLTISSLEPEDFAVYYCQQRSNWPRITFGQGTRLEIK
With B1 the binding result [1] was “no binding”, the EC50 (Sortilin hSORTECDBAP) was 3.49 ng/mL and the EC50 [2] was 2.63 ng/mL. The EC50 [3] was 4.16 ng/mL.

B2: Antibody 6003-822 (antibody, human IgG1, V domains shown)
VH: EVQLLESGGGLVQPGESLTLSCAASGFTLSSYAMSWVRQAPGKGLEWVSSISGRLGTTYYAASVKGRFTISRDNSKNTLYLQMNSLRAEDTAIYSCAKAPSDAFDIWGQGTMVTVSS
VL: EIVLTQSPATLSLSPGERATLSCRASQSVSSYLAWYQQKPGQAPRLLIYDASNRATGIPARFSGSGSGTDFTLTISSLEPEDFAVYYCQQRSNWPIFTFGPGTKVDIK
With B2 the binding result [1] was “no binding”, the EC50 (Sortilin hSORTECDBAP) was 1.97 ng/mL and the EC50 [2] was 1.49 ng/mL. The EC50 [3] was 2.08 ng/mL.

B3: Antibody 6003-886 (antibody, human IgG1, V domains shown)
VH: QVQLVQSGAEVKKPGASVKVSCKASGYTFTKYGISWVRQAPGQGLEWMGWISAYNGNTNYAQKLQDRVTMTTDTFTSTAYMELRSLRSDDTAVYFCARDGPLTGDFTFYGMDVWGQGTTVTVSS
VL: EIVLTQSPATLSLSPGERATLSCRASQSVSSYLAWYQQKPGQAPRLLIYDASNRATGIPARFSGSGSGTDFTLTISSLEPEDFAVYYCQQRSNWPPFTFGPGTKVDIK
B3 was tested, and the binding result [1] was “no binding”, the EC50 (Sortilin hSORTECDBAP) was 3.4 ng/mL and the EC50 [2] was 2.44 ng/mL. For the same binder, the EC50 [3] was 3.45 ng/mL.

B4: Antibody 6003-900 (antibody, human IgG1, V domains shown)
VH: EVQLVESGGGLVKPGGSLRLSCAASGFTFSSYSMNWVRQAPGKGLEWVSSISSSSSYIYYADSVKGRFTISRDNAKNSLYLQMNSLRAEDTAVYYCARRGSGSYDAFDIWGQGTMVTVSS
VL: EIVLTQSPDFQSVTPKEKVTITCRASQSIGYSLHWYQQKPDQSPKLLIKYASQSFSGVPSRFSGSGSGTDFTLTINSLEAEDAAAYYCHQSSSLPLTFGGGTKVEIK
notes: also called antibody 900; Sortilin human antibody 900
In the case of B4, the binding result [1] is reported as “no binding”, the EC50 (Sortilin hSORTECDBAP) is reported as 1.06 ng/mL and the EC50 [2] is reported as 0.91 ng/mL. The EC50 [3] was 1.19 ng/mL.

B5: IgG1-6003-910 (antibody, V domains shown)
VH: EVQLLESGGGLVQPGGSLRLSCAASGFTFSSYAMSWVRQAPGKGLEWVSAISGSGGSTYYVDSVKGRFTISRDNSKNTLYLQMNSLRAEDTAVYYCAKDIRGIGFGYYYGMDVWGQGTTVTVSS
VL: EIVLTQSPATLSLSPGERATLSCRASQSVSSYLVWYQQKPGQAPRLLIYDASNRATGIPARFSGSGSGTDFTLTISSLEPEDFAVYYCQQRSNWPPTFGQGTRLEIK
notes: also called Antibody 6003-910
In the case of B5, the binding result [1] is reported as “no binding”, the EC50 (Sortilin hSORTECDBAP) is reported as 1.34 ng/mL and the EC50 [2] is reported as 1.16 ng/mL. The EC50 [3] was 2.23 ng/mL.

B6: IgG1-6003-972 (antibody, V domains shown)
VH: QVQLVESGGGVVQPGRSLRLSCAASGFTFSDYAMHWVRRAPGKGLEWVVVISYDGSNKYYADSVKGRFTISRDNSKNTLYLQMNSLRAEDTAVYYCARDPSGGWYFDLWGRGTLVTVSS
VL: EIVLTQSPATLSLSPGERATLSCRASQSVSSYLAWYQQKPGQAPRLLIYDASNRATGIPARFSGSGSGTDFTLTISSLEPEDFALYYCQQRSHWPRTFGQGTKVEIK
notes: also called Antibody 6003-972
B6 was tested, and the binding result [1] was “no binding”, the EC50 (Sortilin hSORTECDBAP) was 1.35 ng/mL and the EC50 [2] was 1.12 ng/mL. It also gave an EC50 [3] of 2.57 ng/mL.
